Source: patent US20240182592A1 (CHIA TAI TIANQING PHARMACEUTICAL GROUP, published 2024)

Assays:
human BCMA on cells [1] = target: T1, human BCMA on cells (human, UniProt Q02223 1-184); assay: cell-based or functional assay
T1 sequence (looked up): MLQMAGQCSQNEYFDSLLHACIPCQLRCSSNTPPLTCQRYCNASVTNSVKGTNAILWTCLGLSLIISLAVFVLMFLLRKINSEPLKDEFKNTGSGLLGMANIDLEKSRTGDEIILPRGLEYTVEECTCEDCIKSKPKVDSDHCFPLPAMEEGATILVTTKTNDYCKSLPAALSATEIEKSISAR

human BCMA on cells [2] = target: T1, human BCMA on cells; assay: cell-based or functional assay; remark: listed apart in the source
human BCMA on cells [3] = target: T1, human BCMA on cells; assay: cell-based or functional assay; remark: listed apart in the source
human BCMA on cells [4] = target: T1, human BCMA on cells; assay: flow cytometry, MM1S cells
Experimental: (§1) NCI-H929 cells (BCMA+++), MM1S cells (BCMA++), and RPMI-8226 cells (BCMA+) in the logarithmic growth phase were taken, adjusted to a cell density of 5×10⁶-10×10⁶ cells/mL using RPMI medium (Hyclon, catalog No. SH30809.01) containing 2% FBS (fetal bovine serum), respectively, and seeded in a 96-well U-bottom cell culture plate (Costar, catalog No. 3799) at 50 μL per well. The test antibodies at different concentrations were prepared using the medium described above. […] The antibodies at different concentrations were added to the 96-well cell culture plate described above at 50 μL per well, mixed well and incubated at 4° C. for 1 h. The cells were washed with pre-cooled running buffer (MACS, catalog No. 130-091-221), and the supernatant was discarded. Pre-cooled fluorescent labeled goat anti-human IgG antibodies (Jackson, catalog No. 109-116-170) were added, and the cells were resuspended at 100 μL per well, mixed well and incubated at 4° C. for 30 min. After washing, 100 μL of pre-cooled running buffer was added to resuspend the cells. The cells were mixed well and collected while flowing on an Attune™ NxT flow cytometer, and the data was analyzed using Graphpad Prism5 software. FIGS. 7-9 and Table 11 show the binding ability of the anti-BCMA/anti-CD3 multispecific antibodies to NCI-H929 cells (BCMA+++), MM1S cells (BCMA++), and RPMI-8226 cells (BCMA+).

human BCMA on cells [5] = target: T1, human BCMA on cells; assay: flow cytometry, NCI-H929 cells
Experimental: as §1

T cell surface CD3 = target: T2, T cell surface CD3 (human, UniProt P07766 23-207); assay: flow cytometry, human CD3+ T cells
T2 construct: whole, on cells; also called CD3^+ T cells
Experimental: Human PBMC cells were sorted for CD3⁺ T cells using CD3 magnetic beads (Miltenyi, catalog No. 130-097-043): the cryopreserved PBMCs were thawed, and washed by centrifugation twice for counting. Running buffer (MACS, catalog No. 130-091-221) was added in a cell-to-buffer ratio of 10⁷:80 μL, CD3 beads were added in a cell-to-bead ratio of 10⁷:20 μL, and the mixture was mixed well and incubated at 4° C. for 15 min. The cells were washed with buffer in a cell-to-buffer ratio of 10⁷:1-2 mL. After centrifugation, the supernatant was discarded, and 500 μL of buffer was added to resuspend the cell pellet. The LS sorting column (Miltenyi, catalog No. 130-042-401) was placed on the MidiMACS Starting Kit (LS) magnetic rack (Miltenyi, catalog No. 130-091-051). After rinsing, the cell suspension was added and washed thrice. The LS sorting column was removed from the magnetic rack and placed on a clean centrifuge tube and 5 mL buffer was added to collect the sorted CD3⁺ T cells. After counting, the CD3⁺ T cells were adjusted to a cell density of 5×10⁶-10×10⁶ cells/mL using RPMI medium (Hyclone, catalog No. SH30809.01) containing 2% FBS (fetal bovine serum) and seeded in a 96-well U-bottom cell culture plate (Costar, catalog No. 3799) at 50 μL per well. The test antibodies at different concentrations were prepared using the medium described above. […] The antibodies at different concentrations were added to the 96-well cell culture plate described above at 50 μL per well, mixed well and incubated at 4° C. for 1 h. The cells were washed with pre-cooled running buffer (MACS, catalog No. 130-091-221), and the supernatant was discarded. Pre-cooled fluorescent labeled goat anti-human IgG antibodies (Jackson, catalog No. 109-116-170) were added, and the cells were resuspended at 100 μL per well, mixed well and incubated at 4° C. for 30 min. After washing, 100 μL of pre-cooled running buffer was added to resuspend the cells.

human BCMA on cells [6] = target: T1, human BCMA on cells; assay: flow cytometry on RPMI-8226 cells, fluorescent goat anti-human IgG detection
Experimental: as §1

human BCMA protein = target: T3, human BCMA protein (human, UniProt Q02223 1-54, limits assumed); assay: SPR (Biacore T200), antibody captured by anti-hIgG, human BCMA as analyte, 1:1 model
T3 construct: also called hBCMA; Antigen BCMA
T3 sequence (looked up): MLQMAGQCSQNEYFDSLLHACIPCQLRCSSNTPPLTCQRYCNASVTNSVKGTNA
Experimental: (§2) The affinity of the test antibody for human CD3e or human BCMA protein was determined by Biacore T200 (GE) as follows:
(§3) The response signals were detected in real time using Biacore software, and association and dissociation curves were obtained. The buffer used in the experiment was Biacore universal buffer (137 mM NaCl, 2.7 mM KCl, 10 mM Na₂HPO₄.12H₂O, 1.8 mM KH₂PO₄. 0.05% surfactant P-20 (w/v), pH 7.4). […] The flow rate in the flow cell was at 50 μL/min, the association was performed for 240 s, the dissociation was performed for 1400 s, the regeneration was performed using 3 M MgCl (GE) for 60 s, and the baseline was stable. Results were obtained by calculation according to the affinity and kinetics 1:1 binding mode in biacore evaluation software.

[7] = target: T4, human CD3e (Acro, Cat. No. CDE-H5223) (human, UniProt P07766 23-126); assay: SPR (Biacore T200), antibody captured by anti-hIgG, human CD3e as analyte, 1:1 model
T4 construct: also called human CD3e protein; hCD3e
Experimental: as §2, §3

T2 sequence (P07766 23-207): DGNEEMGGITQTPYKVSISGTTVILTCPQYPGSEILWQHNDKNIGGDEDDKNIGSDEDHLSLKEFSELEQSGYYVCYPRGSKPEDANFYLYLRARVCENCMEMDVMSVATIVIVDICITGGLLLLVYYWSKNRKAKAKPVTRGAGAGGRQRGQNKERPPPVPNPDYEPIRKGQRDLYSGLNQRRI
T4 sequence (P07766 23-126 limits assumed): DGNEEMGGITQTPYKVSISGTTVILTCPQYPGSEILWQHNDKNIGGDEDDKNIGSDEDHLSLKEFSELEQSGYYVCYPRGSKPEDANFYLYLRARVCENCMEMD

B1: anti-BCMA/anti-CD3 multispecific antibody PC2 (bispecific antibody, human IgG1)
chain 1: QVQLVESGGGLVQPGGSLRLSCAASGYSSNVACMAWYRQAPGKGLEWVATIVADFGTTNYAASVKGRFTISQDNSKNTVYLQMNSLRAEDTAVYYCAATQRGGIDWCDEINYWGQGTLVTVSSGEPKSSDKTHTCPPCPAPEAAGGPSVFLFPPKPKDTLMISRTPEVTCVVVDVSHEDPEVKFNWYVDGVEVHNAKTKPREEQYNSTYRVVSVLTVLHQDWLNGKEYKCKVSNKALAAPIEKTISKAKGQPREPQVCTLPPSREEMTKNQVSLSCAVKGFYPSDIAVEWESNGQPENNYKTTPPVLDSDGSFFLVSKLTVDKSRWQQGNVFSCSVMHEALHNHYTQKSLSLSPGK
chain 2: QVQLVESGGGLVQPGGSLRLSCAASGFTFNSACMGWFRQAPGKGREGVSRIETGYGGTVYADSVKGRFTISRDNSKNTVYLQMNSLRAEDTAVYYCAAKRSWCTPTWWHELDYNYWGQGTQVTVSSGGGGSELVVTQEPSLTTSPGGTVTLTCRSSTGAVTTSNYANWVQQKPGQAPRGLIGGTNKRAPGTPARFSGSLLGGKAALTITGVQPEDEAEYYCALWYSNLWVFGGGTKLTVLGGGGSGGGGSGGGGSEVQLVESGGGLVQPGGSLRLSCAASGFTFNTYAMNWVRQAPGKGLEWVARIRSKYNNYATYYADSVKDRFTISRDDSKNTAYLQMNNLKTEDTAMYYCVRHGNFGNSYVSWFAYWGQGTLVTVSSGEPKSSDKTHTCPPCPAPEAAGGPSVFLFPPKPKDTLMISRTPEVTCVVVDVSHEDPEVKFNWYVDGVEVHNAKTKPREEQYNSTYRVVSVLTVLHQDWLNGKEYKCKVSNKALAAPIEKTISKAKGQPREPQVYTLPPCREEMTKNQVSLWCLVKGFYPSDIAVEWESNGQPENNYKTTPPVLDSDGSFFLYSKLTVDKSRWQQGNVFSCSVMHEALHNRFTQKSLSLSPGK
notes: Trivalent; two chains; human IgG1 knobs-into-holes Fc
Lysis EC50, NCI-H929 cells with human PBMCs (E:T 10:1, 24 h, LDH release) (human BCMA on cells [1]): 0.527 nM
Maximum lysis rate, NCI-H929 cells with human PBMCs (human BCMA on cells [1]): 38%
Lysis EC50, MM1S cells with human PBMCs (E:T 10:1, 24 h, LDH release) (human BCMA on cells [2]): 0.0605 nM
Maximum lysis rate, MM1S cells with human PBMCs (human BCMA on cells [2]): 28%
Lysis EC50, RPMI-8226 cells with human PBMCs (E:T 10:1, 24 h, LDH release) (human BCMA on cells [3]): 0.0185 nM
Maximum lysis rate, RPMI-8226 cells with human PBMCs (human BCMA on cells [3]): 39%
EC50 (human BCMA on cells [4]): 0.311 nM
Top(MFI) (human BCMA on cells [4]): 115000 MFI
EC50 (human BCMA on cells [5]): 1.03 nM
Top(MFI) (human BCMA on cells [5]): 234000 MFI
EC50 (T cell surface CD3): ~462 nM
Top(MFI) (T cell surface CD3): 37200 MFI
EC50 (read off the curve) (human BCMA on cells [6]): ~0.3 nM
Kd (human BCMA protein): 0.0185 nM
Kd [7]: 1.33 nM
